Measured values from patent US20070202045A1.

Molecular target: Rabbit SA (rabbit) (UniProt P49065)
Assay: competition ELISA (SA08b binding to rabbit albumin)

Sequence of Rabbit SA (rabbit) (P49065 25-608): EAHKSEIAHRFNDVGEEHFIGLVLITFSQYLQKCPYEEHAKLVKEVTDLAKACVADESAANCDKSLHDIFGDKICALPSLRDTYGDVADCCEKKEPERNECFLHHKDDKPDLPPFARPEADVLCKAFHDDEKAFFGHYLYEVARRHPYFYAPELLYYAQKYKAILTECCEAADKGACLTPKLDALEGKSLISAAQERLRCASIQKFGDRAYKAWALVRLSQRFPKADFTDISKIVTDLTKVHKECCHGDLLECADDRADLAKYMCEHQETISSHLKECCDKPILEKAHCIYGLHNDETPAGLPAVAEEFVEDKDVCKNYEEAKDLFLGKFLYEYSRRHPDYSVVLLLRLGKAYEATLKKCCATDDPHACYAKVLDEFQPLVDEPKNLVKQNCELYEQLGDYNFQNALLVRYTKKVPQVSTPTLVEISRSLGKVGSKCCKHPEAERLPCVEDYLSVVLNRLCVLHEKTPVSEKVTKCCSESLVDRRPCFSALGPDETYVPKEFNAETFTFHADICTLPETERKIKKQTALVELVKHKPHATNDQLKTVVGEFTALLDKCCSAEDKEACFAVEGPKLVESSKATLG

dia4D5
IC50: 10 nM
